Reference: US20140363428A1 (Chugai, published 2014)
Substitutions are numbered along the chain they refer to. One block for each binder: values may come before it.

How the values were obtained:
soluble human FcRn [1] = molecular target: T1, soluble human FcRn (human, UniProt P55899 24-297; P61769 21-119); test: SPR (Biacore), pH 6.0
T1 construct: Heterodimer of alpha chain and beta2-microglobulin; also called hFcRn

soluble human FcRn [2] = molecular target: T1, soluble human FcRn; test: SPR (Biacore), pH 7.0

- Kd (soluble human FcRn [2]): 9.5 nM
B3: Fv-4-F1123 (antibody)
heavy: QVQLQESGPGLVKPSETLSLTCAVSGHSISHDHAWSWVRQPPGEGLEWIGFISYSGITNYNPSLQGRVTISRDNSKNTLYLQMNSLRAEDTAVYYCARSLARTTAMDYWGEGTLVTVSSASTKGPSVFPLAPSSKSTSGGTAALGCLVKDYFPEPVTVSWNSGALTSGVHTFPAVLQSSGLYSLSSVVTVPSSSLGTQTYICNVNHKPSNTKVDKKVEPKSCDKTHTCPPCPAPELLGGPSVFLFPPKPKDVLYISRTPEVTCVVVDVSHEDPEVKFNWYVDGVEVHNAKTKPREEQYNSTYRVVSVLQPLHADWLNGKEYKCKVSNKALPAPIEKTISKAKGQPREPQVYTLPPSRDELTKNQVSLTCLVKGFYPSDIAVEWESNGQPENNYKTTPPVLDSDGSFFLYSKLTVDKSRWQQGNVFSCSVMHEALHYHVTQKELSLSP
light: DIQMTQSPSSLSASVGDSVTITCQASTDISSHLNWYQQKPGKAPELLIYYGSHLLSGVPSRFSGSGSGTDFTFTISSLEAEDAATYYCGQGNRLPYTFGQGTKVEIERTVAAPSVFIFPPSDEQLKSGTASVVCLLNNFYPREAKVQWKVDNALQSGNSQESVTEQDSKDSTYSLSSTLTLSKADYEKHKVYACEVTHQGLSSPVTKSFNRGEC

- Kd (soluble human FcRn [2]): 97.3 nM
B7: Fv-4-F1231 (antibody)
heavy: B3 heavy with V252T, Q309T, P310V, A313Q, Q440K
light: B3 light

- Kd (soluble human FcRn [2]): 112 nM
B10: Fv-4-F1230 (antibody)
heavy: B3 heavy with V252T, Q309T, P310V, A313Q, Q440R, E442D
light: B3 light

- Kd (soluble human FcRn [2]): 12 nM
B11: Fv-4-F1124 (antibody)
heavy: B3 heavy with Q440R
light: B3 light

- Kd (soluble human FcRn [2]): 10 nM
B17: Fv-4-F1119 (antibody, human IgG1, kappa)
heavy: B3 heavy with V424E, E442S
light: B3 light

- Kd (soluble human FcRn [2]): 130 nM
B18: Fv-4-F1108 (antibody, human IgG1, kappa)
heavy: B3 heavy with V252T, Q309T, P310V, A313Q, V424K, E442S
light: B3 light

- Kd (soluble human FcRn [2]): 120 nM
B23: Fv-4-F1113 (antibody)
heavy: B3 heavy with V252T, Q309T, P310V, A313Q, E442D
light: B3 light

- Kd (soluble human FcRn [2]): 160 nM
B24: Fv-4-F1111 (antibody, human IgG1, kappa)
heavy: B3 heavy with V252T, Q309T, P310V, A313Q, S426K, E442S
light: B3 light

- Kd (soluble human FcRn [2]): 10 nM
B30: Fv-4-F1120 (antibody, human IgG1, kappa)
heavy: B3 heavy with S426R, E442S
light: B3 light

- Kd (soluble human FcRn [2]): 97.9 nM
B33: Fv-4-F1232 (antibody)
heavy: B3 heavy with V252T, Q309T, P310V, A313Q, Q440K, E442D
light: B3 light

- Kd (soluble human FcRn [2]): 130 nM
B34: Fv-4-F1114 (antibody)
heavy: B3 heavy with V252T, Q309T, P310V, A313Q, E442Q
light: B3 light

- Kd (soluble human FcRn [2]): 130 nM
B36: Fv-4-F1109 (antibody, human IgG1, kappa)
heavy: B3 heavy with V252T, Q309T, P310V, A313Q, V424T, E442S
light: B3 light

- Kd (soluble human FcRn [2]): 14 nM
B37: Fv-4-F1122 (antibody, human IgG1, kappa)
heavy: B3 heavy with Q440R, E442S
light: B3 light

- Kd (soluble human FcRn [2]): 120 nM
B38: Fv-4-F1112 (antibody, human IgG1, kappa)
heavy: B3 heavy with V252T, Q309T, P310V, A313Q, Q440K, E442S
light: B3 light

- Kd (soluble human FcRn [2]): 10 nM
B40: Fv-4-F1121 (antibody, human IgG1, kappa)
heavy: B3 heavy with V424E, S426R, E442S
light: B3 light

- Kd (soluble human FcRn [2]): 130 nM
B43: Fv-4-F1110 (antibody, human IgG1, kappa)
heavy: B3 heavy with V252T, Q309T, P310V, A313Q, V424Q, E442S
light: B3 light

The remaining lines, values behind:

B1: F1670 (antibody)
heavy: B3 heavy with L237R, S241K, V252T, Y254M, Q309T, P310V, A313Q, Q440R
light: B3 light
- Kd (soluble human FcRn [1]): 64 nM

B2: F1723 (antibody)
heavy: B3 heavy with V252T, Y254M, Q309T, P310V, A313Q, H435D, Q440R, E442D
light: B3 light
- Kd (soluble human FcRn [1]): 96 nM

B4: F1757 (antibody)
heavy: B3 heavy with V252T, Y254M, Q309T, P310V, A313Q, V438T, Q440R, E442D
light: B3 light
- Kd (soluble human FcRn [1]): 72 nM

B5: F1753 (antibody)
heavy: QVQLQESGPGLVKPSETLSLTCAVSGHSISHDHAWSWVRQPPGEGLEWIGFISYSGITNYNPSLQGRVTISRDNSKNTLYLQMNSLRAEDTAVYYCARSLARTTAMDYWGEGTLVTVSSASTKGPSVFPLAPSSKSTSGGTAALGCLVKDYFPEPVTVSWNSGALTSGVHTFPAVLQSSGLYSLSSVVTVPSSSLGTQTYICNVNHKPSNTKVDKKVEPKSCDKTHTCPPCPAPELRGGPKVFLFPPKPKDTLMISRTPEVTCVVVDVSHEDPEVKFNWYVDGVEVHNAKTKPREEQYNSTYRVVSVLTVLHQDWLNGKEYKCKVSNKALPAPIEKTISKAKGQPREPQVYTLPPSRDELTKNQVSLTCLVKGFYPSDIAVEWESNGQPENNYKTTPPVLDSDGSFFLYSKLTVDKSRWQQGNVFSCSVMHEALDYHTTRKDLSLSP
light: B3 light
- Kd (soluble human FcRn [1]): 130 nM

B6: F1681 (antibody)
heavy: B5 heavy with D435H, D442E
light: B3 light
- Kd (soluble human FcRn [1]): 84 nM

B8: Fv-4-F1105 (antibody, human IgG1, kappa)
heavy: B3 heavy with V252T, Q309T, P310V, A313Q, V424S, S426R, E442S
light: B3 light
- Kd (soluble human FcRn [2]): 150 nM

B9: F1712 (antibody)
heavy: B5 heavy with D435H, T438V, R440K, D442E
light: B3 light
- Kd (soluble human FcRn [1]): 55 nM

B12: F1751 (antibody)
heavy: B5 heavy with D435H, R440K
light: B3 light
- Kd (soluble human FcRn [1]): 69 nM

B13: F1725 (antibody)
heavy: B5 heavy with R237L, K241S, T438V, R440K
light: B3 light
- Kd (soluble human FcRn [1]): 93 nM

B14: F1756 (antibody)
heavy: B5 heavy with R237L, K241S, D435H, D442E
light: B3 light
- Kd (soluble human FcRn [1]): 80 nM

B15: F1715 (antibody)
heavy: B5 heavy with T438V
light: B3 light
- Kd (soluble human FcRn [1]): 110 nM

B16: Fv-4-F1107 (antibody, human IgG1, kappa)
heavy: B3 heavy with V252T, Q309T, P310V, A313Q, V424D, E442S
light: B3 light
- Kd (soluble human FcRn [2]): 120 nM

B19: F1758 (antibody)
heavy: B5 heavy with R237L, K241S, D435H, R440K, D442E
light: B3 light
- Kd (soluble human FcRn [1]): 70 nM

B20: F1752 (antibody)
heavy: B5 heavy with D442E
light: B3 light
- Kd (soluble human FcRn [1]): 150 nM

B21: F1754 (antibody)
heavy: B5 heavy with R440K, D442E
light: B3 light
- Kd (soluble human FcRn [1]): 120 nM

B22: F1675 (antibody)
heavy: B5 heavy with T438V, R440Q, D442S
light: B3 light
- Kd (soluble human FcRn [1]): 97 nM

B25: F1749 (antibody)
heavy: B5 heavy with D435H
light: B3 light
- Kd (soluble human FcRn [1]): 87 nM

B26: F1720 (antibody)
heavy: B3 heavy with V252T, Y254M, Q309T, P310V, A313Q, Q440K
light: B3 light
- Kd (soluble human FcRn [1]): 45 nM

B27: Fv-4-F1106 (antibody)
heavy: B3 heavy with V252T, Q309T, P310V, A313Q, Q440R
light: B3 light
- Kd (soluble human FcRn [2]): 140 nM

B28: F1763 (antibody)
heavy: B5 heavy with R237L, K241S, R440K
light: B3 light
- Kd (soluble human FcRn [1]): 110 nM

B29: F1719 (antibody)
heavy: B5 heavy with R237L, K241S, D435H, T438V
light: B3 light
- Kd (soluble human FcRn [1]): 52 nM

B31: F1714 (antibody)
heavy: B5 heavy with T438V, D442E
light: B3 light
- Kd (soluble human FcRn [1]): 110 nM

B32: F1683 (antibody)
heavy: B5 heavy with D435H, T438F, D442E
light: B3 light
- Kd (soluble human FcRn [1]): 57 nM

B35: F1759 (antibody)
heavy: B5 heavy with R237L, K241S, D435H, R440K
light: B3 light
- Kd (soluble human FcRn [1]): 63 nM

B39: F1750 (antibody)
heavy: B5 heavy with D435H, R440K, D442E
light: B3 light
- Kd (soluble human FcRn [1]): 70 nM

B41: F1716 (antibody)
heavy: B5 heavy with T438V, R440K, D442E
light: B3 light
- Kd (soluble human FcRn [1]): 96 nM

B42: F1724 (antibody)
heavy: B5 heavy with R237L, K241S, T438V, R440K, D442E
light: B3 light
- Kd (soluble human FcRn [1]): 99 nM

B44: F1761 (antibody)
heavy: B5 heavy with R237L, K241S
light: B3 light
- Kd (soluble human FcRn [1]): 130 nM

B45: F1718 (antibody)
heavy: B5 heavy with R237L, K241S, D435H, T438V, D442E
light: B3 light
notes: S440F as printed
- Kd (soluble human FcRn [1]): 61 nM
